Consider 2 molecules from paper PMC5573810 (2017).

What all share (test): ELISA
(In an ELISA, binding on a coated surface is turned into a signal by an enzyme label.)

Experiment [1] has as its target gp120-ferritin (gp120-FR) nanoparticle.
Experiment [2] has as its target N332 nanoparticle (1GUT_A_ES-FR).
Experiment [3] has as its target clade-C (ZM109) V1V2-ferritin nanoparticle (V1V2-FR) (HIV-1 ZM109 (clade C) | ).

B1: PGT124 (antibody, V domains shown)
VH: QVQLQESGPGLVRPSETLSVTCIVSGGSISNYYWTWIRQSPGKGLEWIGYISDRETTTYNPSLNSRAVISRDTSKNQLSLQLRSVTTADTAIYFCATARRGQRIYGVVSFGEFFYYYYMDVWGKGTAVTVSS
VL: SYVSPLSVALGETARISCGRQALGSRAVQWYQHKPGQAPILLIYNNQDRPSGIPERFSGTPDINFGTTATLTISGVEVGDEADYYCHMWDSRSGFSWSFGGATRLTVL
A word on the EC50: it is the concentration that produces a half-maximal response. As for B1, the half-maximal effective concentration (EC50) in experiment [1] came out at 0.026 mg/L; in experiment [2], 0.03 mg/L.

B2: PGT133 (antibody, V domains shown)
VH: QVHLQESGPGLVTPSETLSLTCTVSNGSVSGRFWSWIRQSPGRGLEWIGYFSDTDRSEYNPSLRSRLTLSVDRSKNQLSLRLKSVTAADSATYYCARAQQGKRIYGIVSFGEFFYYYYMDAWGKGTPVTVSS
VL: LSLAPGATAKIPCGERSRGSRAVQWYQQKPGQAPTLIIYNNQDRPAGVSERFSGNPDVAIGVTATLTISRVEVGDEADYYCHYWDSRSPISWIFGGGTQLTVL
Turning to B2, the EC50 is 0.042 mg/L in experiment [1], 0.024 mg/L in experiment [2] and 0.26 mg/L in experiment [3].
